Measured values: article doi:10.1101/2020.05.01.070730 (bioRxiv, 2020)
Positions count from the first letter of the chain named. Read-outs that look alike come from different tables or passages of the source.

Columns and labels:
MutS R842E = target: T1, MutS R842E (Pseudomonas aeruginosa, UniProt Q9HY08 1-855, R842E); assay: native PAGE shift
T1 sequence: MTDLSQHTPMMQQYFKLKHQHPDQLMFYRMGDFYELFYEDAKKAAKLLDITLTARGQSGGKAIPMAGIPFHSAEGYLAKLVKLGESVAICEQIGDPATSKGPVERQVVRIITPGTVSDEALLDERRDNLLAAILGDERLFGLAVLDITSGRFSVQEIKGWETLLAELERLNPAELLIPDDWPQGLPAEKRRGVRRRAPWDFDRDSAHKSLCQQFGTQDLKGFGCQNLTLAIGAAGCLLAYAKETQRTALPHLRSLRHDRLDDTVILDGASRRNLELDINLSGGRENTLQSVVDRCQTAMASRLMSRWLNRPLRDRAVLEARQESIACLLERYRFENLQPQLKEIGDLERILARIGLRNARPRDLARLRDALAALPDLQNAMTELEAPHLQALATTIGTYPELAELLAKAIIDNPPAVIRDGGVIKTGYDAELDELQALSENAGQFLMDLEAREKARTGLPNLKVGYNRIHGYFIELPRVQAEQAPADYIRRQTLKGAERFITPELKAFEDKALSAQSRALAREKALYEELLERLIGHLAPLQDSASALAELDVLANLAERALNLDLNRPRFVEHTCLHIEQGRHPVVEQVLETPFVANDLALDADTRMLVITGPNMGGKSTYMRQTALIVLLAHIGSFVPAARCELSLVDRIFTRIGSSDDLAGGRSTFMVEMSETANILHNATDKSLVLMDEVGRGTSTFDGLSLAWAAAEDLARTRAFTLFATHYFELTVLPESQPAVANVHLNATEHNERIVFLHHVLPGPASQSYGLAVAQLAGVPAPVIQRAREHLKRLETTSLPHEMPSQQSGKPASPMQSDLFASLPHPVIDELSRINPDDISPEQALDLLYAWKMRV

MutS [1] = target: T2, MutS (Pseudomonas aeruginosa, UniProt Q9HY08 1-855); assay: SPR
T2 sequence: T1 sequence with E842R

MutS [2] = target: T2, MutS; assay: SPR; remark: listed apart in the source

B1: GT-pDNA (GT 8 nt from 3'-OH) (dsDNA)
DNA 1: ATGTGAATCAGTATGGTTGCTATCTGC
DNA 2: ATTTCCTTCAGCAGATAGTAACCATACTGATTCACAT
MutS R842E
  binding result: binds

B2: dsDNA (dsDNA)
DNA 1: ATGTGAATCAGTATGGTTACTATCTGCTGAAGGAAAT
DNA 2: B1 DNA 2
MutS [1]
  Kd: 1960 nM

B3: GT-dsDNA (GT 18 nt from 3' end) (dsDNA)
DNA 1: B2 DNA 1 with A19G
DNA 2: B1 DNA 2
MutS [2]
  Kd: 118 ± 8.9 nM
